Results taken from patent publication US20050244864A1, “Development and use of fluorescent probes of unbound analytes” (priority 2004, published 2005).

B1: VQQ: probe L72V R106Q R126Q of rI-FABP (protein, UniProt P02693 2-132, looked up, variant L72V R106Q R126Q)
Fatty acid-binding protein, …: AFDGTWKVDRNENYEKFMEKMGINVVKRKLGAHDNLKLTITQEGNKFTVKESSNFRNIDVVFELGVDFAYSVADGTELTGTWTMEGNKLVGKFKRVDNGKELIAVQEISGNELIQTYTYEGVEAKQIFKKE
modifications: fluorescent label
notes: probe L72V R106Q R126Q of rI-FABP
B2: 11F1, L72A (protein, UniProt P02693 2-132, looked up, variant N11F L72A)
Fatty acid-binding protein, …: AFDGTWKVDRFENYEKFMEKMGINVVKRKLGAHDNLKLTITQEGNKFTVKESSNFRNIDVVFELGVDFAYSAADGTELTGTWTMEGNKLVGKFKRVDNGKELIAVREISGNELIQTYTYEGVEAKRIFKKE
modifications: acrylodan label
B3: 11I1, L72A (protein, UniProt P02693 2-132, looked up, variant N11I L72A)
Fatty acid-binding protein, …: AFDGTWKVDRIENYEKFMEKMGINVVKRKLGAHDNLKLTITQEGNKFTVKESSNFRNIDVVFELGVDFAYSAADGTELTGTWTMEGNKLVGKFKRVDNGKELIAVREISGNELIQTYTYEGVEAKRIFKKE
modifications: acrylodan label
B4: 11Q1, L72A (protein, UniProt P02693 2-132, looked up, variant N11Q L72A)
Fatty acid-binding protein, …: AFDGTWKVDRQENYEKFMEKMGINVVKRKLGAHDNLKLTITQEGNKFTVKESSNFRNIDVVFELGVDFAYSAADGTELTGTWTMEGNKLVGKFKRVDNGKELIAVREISGNELIQTYTYEGVEAKRIFKKE
modifications: acrylodan label
B5: 11D1, L72A (protein, UniProt P02693 2-132, looked up, variant N11D L72A)
Fatty acid-binding protein, …: AFDGTWKVDRDENYEKFMEKMGINVVKRKLGAHDNLKLTITQEGNKFTVKESSNFRNIDVVFELGVDFAYSAADGTELTGTWTMEGNKLVGKFKRVDNGKELIAVREISGNELIQTYTYEGVEAKRIFKKE
modifications: acrylodan label
B6: 11S5, L72A (protein, UniProt P02693 2-132, looked up, variant N11S L72A)
Fatty acid-binding protein, …: AFDGTWKVDRSENYEKFMEKMGINVVKRKLGAHDNLKLTITQEGNKFTVKESSNFRNIDVVFELGVDFAYSAADGTELTGTWTMEGNKLVGKFKRVDNGKELIAVREISGNELIQTYTYEGVEAKRIFKKE
modifications: acrylodan label
B7: 11W1, L72A (protein, UniProt P02693 2-132, looked up, variant N11W L72A)
Fatty acid-binding protein, …: AFDGTWKVDRWENYEKFMEKMGINVVKRKLGAHDNLKLTITQEGNKFTVKESSNFRNIDVVFELGVDFAYSAADGTELTGTWTMEGNKLVGKFKRVDNGKELIAVREISGNELIQTYTYEGVEAKRIFKKE
modifications: acrylodan label

What was measured:
Format in all cases: binding
[1] = Probe fluorescence ratio response to palmitate:BSA complex, relative to ADIFAB2 (ΔR/ΔRAD2); conditions: for DR/DR PA: palmitate (PA), response relative to ADIFAB2
Description: (§1) The intensity ratio (“R” value) for a given probe is determined. The ratio is calculated using the following formula: R=Fλ1/Fλ2 wherein, Fλ1, is the measured fluorescence intensities (intensity of sample with probe present minus intensity of sample without probe present) at wavelength 1 and Fλ2 is the measured fluorescence intensities (intensity of sample with probe present minus intensity of sample without probe present) at wavelength 2. Then, for a given probe, ΔR, the difference in R value between the measurement in the presence of the analyte and in the absence of the analyte, is calculated as follows: ΔR=R+analyte−R0 The ΔR value for a given probe is then compared to a reference probe, for example, ADIFAB or ADIFAB2, by ΔR/ΔRreference. This value is an indication of how dissimilar the new probe (derived by mutation of the template) is to the reference. By this method, probes with new and useful characteristics may be identified. Measurements of fluorescence intensities are obtained using standard techniques.
(§2) Mutant probes were screened in 96-well plates by fluorescence response to five fatty acids: arachidonate, linolenate, linoleate, oleate, and palmitate. Each fatty acid was prepared as a complex with BSA by slow addition of 50 mM stocks of fatty acid sodium salts at pH 11 to 600 μM BSA in HEPES buffer. During the formation of complexes, 15 μL aliquots were periodically measured with the reference probe, ADIFAB2, to determine the ΔR value upon excitation at 375 nm and fluorescence emission at 550 and 457 nm using a Fluorolog-3 spectrofluorometer (Jobin Yvon) (Richieri et al, Molecular and Cellular Biochemistry (1999), 192:87-94 & Richieri et al, J. Biol. Chem. (1996), 271:31068-31074). Complexes were prepared such that the final ΔR was approximately 0.4 which correspond to [FFAu] ranging from 100 to 1000 nM depending on FFA type. These complexes buffer or clamp the FFAu levels at fixed values and therefore ensure the accurate comparison of different probes with the same FFAu concentrations. In contrast, addition of FFAu alone (i.e. uncomplexed FFA) introduces considerable uncertainty in comparing different probes because the FFAu level will be affected by binding to the dispensing device, the walls of the multi-well plates and to the probe itself. Thus, the terms “buffer” and “clamp” as used in this particular context herein are taken to mean the ability of a carrier macromolecule to complex with an unbound metabolite so that the unbound metabolite is presented accurately for measurement purposes and is prevented from non-specific binding such as binding to laboratory apparatus.
(§3) Plates were prepared and read in two stages. First, complexes and fatty acid free BSA were diluted to 6 μM BSA in HEPES and added to the 96-well plate at 300 μL per well. A MultiProbe II HT (Perkin Elmer) (an automated liquid handling system) was used to facilitate plate preparation for high throughput screening, but any automated or manual pipetting system will suffice. The background fluorescence was then measured at the same wavelengths as used for ADIFAB2 using a Fluorolog-3 spectrofluorometer with an external Micromax 384 fluorescence plate reader (Jobin Yvon). In the second stage, 30 μL aliquots of the mutant probes were added to multiple wells of the plate, one for each fatty acid and one with fatty acid free BSA only, and the fluorescence intensity at each wavelength was again measured on the plate reader. After subtraction of the background fluorescence, the fluorescence ratio of each well was calculated.
(§4) The fluorescence response was quantitatively compared to ADIFAB2 to search for changes in magnitude and fatty acid profile; for example the response to one fatty acid relative to another. For each probe the ratio differences (AR) between wells with each fatty acid compared to a corresponding well with fatty acid free BSA were recorded. […]

[2] = Probe fluorescence ratio response to linolenate:BSA complex, relative to ADIFAB2 (ΔR/ΔRAD2); conditions: linolenate (LNA); response relative to ADIFAB2
Description: as §1, §2, §3, §4

[3] = Probe fluorescence ratio response to arachidonate:BSA complex, relative to ADIFAB2 (ΔR/ΔRAD2); conditions: arachidonate (AA); response relative to ADIFAB2
Description: as §1, §2, §3, §4

[4] = Probe fluorescence ratio response to oleate:BSA complex, relative to ADIFAB2 (ΔR/ΔRAD2); conditions: oleate (OA); response relative to ADIFAB2
Description: as §1, §2, §3, §4

[5] = Probe fluorescence ratio response to linoleate:BSA complex, relative to ADIFAB2 (ΔR/ΔRAD2); conditions: linoleate (LA); response relative to ADIFAB2
Description: as §1, §2, §3, §4

Molecule	response to palmitic acid [1]	DR/DR LNA [2]	DR/DR AA [3]	DR/DR PA [1]	DR/DR OA [4]	DR/DR LA [5]
B1	does not respond to palmitic acid					
B2		0.29	0.42	0.18	0.20	0.28
B3		0.51	0.58	1.19	0.39	0.55
B4		1.43	1.33	1.19	1.32	1.37
B5		0.86	0.82	0.83	0.92	0.91
B6		0.37	0.33	0.35	0.29	0.36
B7		0.39	0.43	0.15	0.22	0.40
